This data set concerns the molecule itself. The experiment in a line: X-ray crystal structure (homodimer in the asymmetric unit).

B1: IspA (farnesyl pyrophosphate synthase) from E. coli, full length with non-cleavable N-terminal six histidine tag (enzyme)
chain: MGSDKIIHHHHHHTLMDFPQQLEACVKQANQALSRFIAPLPFQNTPVVETMQYGALLGGKRLRPFLVYATGHMFGVSTNTLDAPAAAVECIHAYSLIHDDLPAMDDDDLRRGLPTCHVKFGEANAILAGDALQTLAFSILSDADMPEVSDRDRISMISELASASGIAGMCGGQALDLDAEGKHVPLDALERIHRHKTGALIRAAVRLGALSAGDKGRRALPVLDKYAESIGLAFQVQDDILDVVGDTATLGKRQGADQQLGKSTYPALLGLEQARKKARDLIDDARQSLKQLAEQSLDTSALEALADYIIQRNK
notes: Two copies form the dimer in the crystal; also called FPPS
On to B1, for which the binding result is given as “binds”.

The values above are taken from patent US7563610 (Takeda / Millennium, dated 2009).
